Laboratory results taken from patent US20180280528A1, “ANTIFOLATE CONJUGATES FOR TREATING INFLAMMATION” (ENDOCYTE, INC., priority 2015, published 2018).

What was measured:
[1] = Plasma protein binding by ultrafiltration, rat plasma; format: in vitro ADME; settings: 500 nM
Description: (§1) EC2319 and EC1669 plasma protein binding was evaluated by ultra filtration using VWR 30K MWCO modified PES filters. 250 μL of 500 nM EC2319 or EC1669 in K3EDTA plasma incubated at 37° C. was added to the upper filter vessel. 50 μL was immediately removed as the donor plasma sample and aliquoted into a clean 1.2 mL plate. […] An aliquot of […] plasma ultrafiltrate was then added to the 1.2 mL plate as the receiver sample. To each plasma sample, 50 μL of plasma ultrafiltrate was added, and each ultrafiltrate sample received 50 μL of plasma to mitigate matrix effects. N-Maleoyl-β-alanine, mannitol, and acetic acid were added at the end of each experiment to stabilize the samples prior to LC-MS/MS analysis.

[2] = Incubation with AIA rat macrophage cell lysates; format: in vitro ADME; settings: AIA rat macrophage lysate, pH 4.5, 37° C., 2 hours
Description: Prior to immunization with adjuvant, female Lewis rats were fed a folate-deficient diet (Harlan Teklad, Indianapolis, Ind.) for approximately 10 days to reduce serum folate competition from high-folate-containing regular rodent chow. The rats were then inoculated intradermally (at the base of tail) with 0.5 mg heat-killed M. butyricum (BD Diagnostic Systems, Franklin Lakes, N.J.) in 100 μL light mineral oil (Sigma-Aldrich, St Louis, Mo., USA). The rats were then allowed to develop arthritis scores between 3 and 4 as described in Lu et al. (Arthritis Research & Therapy 2011, 13:R56). After rats developed severe joint inflammation, AIA rat peritoneal cells were isolated, plated, and whole cell lysates were prepared as described above with the exception that the lysates were resuspended in 0.1 M sodium acetate buffer, pH 4.5, to make a concentration of cell lysates equivalent to 10 million cells/mL of 0.1 M sodium acetate buffer, pH 4.5.
To 100 μL AIA rat macrophage, RAW264.7 or THP-1 FRβ cell lysates (each containing 10 million cells/mL 0.1 M sodium acetate, Ph 4.5) was added 2 μL of a 50 μM solution of EC2319 or EC1669 (Endocyte, Inc.). The solutions were incubated at 37° C. in a heat block (VWR International, Radnor, Pa.) for 2 hours. The reaction was terminated by the addition of 5 µL of stabilizer solution and 100 μL of acetonitrile containing d5-aminopterin (Endocyte, Inc.). […]

[3] = Incubation with RAW264.7 cell lysates; format: in vitro ADME, mouse; settings: RAW264.7 lysate, pH 4.5, 37° C., 2 hours
Description: To 100 μL AIA rat macrophage, RAW264.7 or THP-1 FRβ cell lysates (each containing 10 million cells/mL 0.1 M sodium acetate, Ph 4.5) was added 2 μL of a 50 μM solution of EC2319 or EC1669 (Endocyte, Inc.). The solutions were incubated at 37° C. in a heat block (VWR International, Radnor, Pa.) for 2 hours. The reaction was terminated by the addition of 5 µL of stabilizer solution and 100 μL of acetonitrile containing d5-aminopterin (Endocyte, Inc.). The rest of the workup is as described above.

[4] = Plasma protein binding by ultrafiltration, human plasma; format: in vitro ADME; settings: 500 nM
Description: as §1

Pharmacokinetics in dogs = settings: beagle, dog, in vivo
Description: (§2) The samples were centrifuged under refrigeration for at least 10 minutes at 3000 rpm and the plasma generated stored at −20° C. until LC-MS/MS analysis.
as §2
LC-MS/MS analysis utilized a Waters Acquity UPLC system paired with a Waters Quattro Premier XE tandem quadrupole mass spectrometer operating in ESI positive mode. Prior to injection, K3EDTA plasma samples were processed using a Phenomenex Strata X-A solid phase extraction (SPE) plate. All plasma samples were fortified with N-Maleoyl-β-alanine, mannitol, and acetic acid. Briefly, 50 μL of plasma diluted with 50 μL of internal standard solution and 500 μL 1000:4:1.5 water:ammonium hydroxide:formic acid was mixed and loaded onto a preconditioned Strata X-A SPE plate. Aqueous and organic washes were then applied followed by elution of all analytes with 300:200:7.5 methanol:water:formic acid. The samples were evaporated until approximately 30 μL remained in all wells and 30 μL of 9:1 water:ammonium hydroxide was then added. Finally, the plate was sealed, mixed, and centrifuged prior to transfer to the 2-8° C. Acquity autosampler. Note: During EC1669 analysis, EC0470 was converted to a hydrazone product for bioanalysis. Acetone (500 μL) was added to all samples after the first evaporation step followed by sealing all wells and heating at 50° C. for one hour. After this step, the acetone was evaporated and the extraction completed as described above.
A 10 μL sample volume was applied to the Waters BEH Shield RP18 100×2.1 mm, […] UPLC column operating at a flow rate of 0.4 mL/min while being maintained at 45° C. A gradient between mobile phase A (1000:4:1.5 water:ammonium hydroxide:formic acid) and mobile phase B (acetonitrile) was used to separate the analytes. The gradient was held at 2% B for the first 30 seconds of the chromatographic run followed by increasing to 20% B by 2.5 minutes. A rapid gradient from 60-90% B is then used to clean the column prior to equilibration at 2% B to complete the 4 minute run cycle.
For EC1669 MS/MS analysis, EC1669 and its known major metabolites, EC1886 and […], were optimized and monitored. […] In all cases, internal standard response was used to generate response ratios for each analyte. When calibrated, data was regressed using MassLynx 4.1 software. The table below lists transitions for analytes and internal standards monitored for LC-MS/MS bioanalysis.

[5] = Release of aminopterin in human hepatic cytosol; format: in vitro ADME; settings: 5% human liver cytosol, 1 hour; for pH dependence of aminopterin release from the conjugate: pH 4.5, 6.0, 7.4, 37° C.
Description: EC2319 and EC1669 were incubated in 5% rat, dog, and human hepatic cytosol at different pH's to look at release of aminopterin from these conjugates. Liver cytosols from male Sprague-Dawley rats (Lot No. 1110428), male beagle dogs (Lot no. 1310024), and male humans (Lot No. 0710493), all containing 10 mg/mL protein, were obtained from Xenotech LLC (Lenexa, Kans.). These were diluted 20× in either 0.5 M sodium acetate buffer, pH 4.5, 0.5 M sodium acetate buffer, 6.0, or 0.5 M potassium phosphate buffer, pH 7.4 in a final volume of 500 μL. Reactions were initiated by the addition of 1 μL of either EC2319 or EC1669 and the reaction mixtures incubated at 37° C. for 1 hour. At the end of the incubation, a 100 μL aliquot was withdrawn into a cluster tube and the reaction was terminated by the addition of 5 μL of stabilizer solution (containing 8.5 mg/ml N-Maleoyl-β-alanine, 20 mg/mL mannitol and 0.075% acetic acid) and 100 μL of acetonitrile containing d5-aminopterin. The tubes were vortexed and then centrifuged at 4000 rpm for 10 minutes (Eppendorf centrifuge 5810R). 150 μL of the supernatant was transferred to 96-well plates and the acetonitrile evaporated off under nitrogen at 35° C. for 5 minutes. The extract was diluted with 50 μL of mobile phase A. The plate was vortexed on a VX-2500 multi-tube vortexer (VWR International, Radnor, Pa.) and the extract analyzed by LC-MS/MS.

For `N=c1[nH]c(N)nc2ncc(CNc3ccc(C(=O)N[C@@H](CCC(=O)NNC(=O)OCCSSC[C@@H](NC(=O)[C@H](CCC(=O)NC[C@H](O)[C@@H](O)[C@H](O)[C@H](O)CO)NC(=O)[C@@H](CCC(=O)O)NC(=O)[C@H](CCC(=O)NC[C@H](O)[C@@H](O)[C@H](O)[C@H](O)CO)NC(=O)[C@@H](CCC(=O)O)NC(=O)[C@H](CCC(=O)NC[C@H](O)[C@@H](O)[C@H](O)[C@H](O)CO)NC(=O)CC[C@H](NC(=O)c4ccc(NCc5cnc6nc(N)[nH]c(=O)c6n5)cc4)C(=O)O)C(=O)O)C(=O)O)cc3)nc12` [EC1669, reference compound], the plasma protein binding [1] was “high plasma protein binding”, the aminopterin release [2] was “greater from EC1669 than from EC2319” and the aminopterin release [3] was “greater from EC1669 than from EC2319”. For the same compound, the plasma protein binding [4] was “high plasma protein binding”, the AUC(0-t) (Pharmacokinetics in dogs; sc, 2.4 mg/kg) was 4.07 µM·h and the Cmax (Pharmacokinetics in dogs; sc, 2.4 mg/kg) was 1390 nM. For the same compound, the Tmax (Pharmacokinetics in dogs; sc, 2.4 mg/kg) was 1.19 h, the half-life (Pharmacokinetics in dogs; sc, 2.4 mg/kg) was 0.994 h and the “pH dependence of aminopterin release from the conjugate” value [5] was “highest at pH 4.5”.
In the case of `COC(=O)[C@H](CSSC(C)(C)[C@H](NC(=O)[C@H](CCC(=O)NC[C@H](O)[C@@H](O)[C@H](O)[C@H](O)CO)NC(=O)[C@H](CCC(=O)O)NC(=O)[C@H](CCC(=O)NC[C@H](O)[C@@H](O)[C@H](O)[C@H](O)CO)NC(=O)[C@H](CCC(=O)O)NC(=O)[C@H](CCC(=O)NC[C@H](O)[C@@H](O)[C@H](O)[C@H](O)CO)NC(=O)CC[C@H](NC(=O)c1ccc(NCc2cnc3nc(N)[nH]c(=O)c3n2)cc1)C(=O)O)C(=O)O)NC(=O)CC[C@H](NC(=O)c1ccc(NCc2cnc3nc(N)nc(N)c3n2)cc1)C(=O)O` [EC2319], the plasma protein binding [1] is reported as “higher plasma protein binding than did EC1669”, the aminopterin release [2] is reported as “aminopterin release was observed” and the aminopterin release [3] is reported as “aminopterin release was observed”. The plasma protein binding [4] was “higher plasma protein binding than did EC1669”, the bioavailability (Pharmacokinetics in dogs; male, 2.43 mg/kg) was 133% and the Tmax (Pharmacokinetics in dogs; male, iv, 1 mg/kg) was 0.03 h. It also gave a Vd (Pharmacokinetics in dogs; male, iv, 1 mg/kg) of 0.41 L/kg, a clearance (Pharmacokinetics in dogs; male, iv, 1 mg/kg) of 4.7 mL/min/kg and a half-life (Pharmacokinetics in dogs; male, iv, 1 mg/kg) of 1.01 h. For the same compound, the AUC(0-t) (Pharmacokinetics in dogs; male, sc, 2.43 mg/kg) was 5.07 µM·h, the half-life (Pharmacokinetics in dogs; male, sc, 2.43 mg/kg) was 1.21 h and the “magnitude of aminopterin release” value ([5]; 37° C.) was “lower than that from EC1669”. The “pH dependence of aminopterin release from the conjugate” value [5] was “highest at pH 4.5”.
